From publication PMC6629726, “Domain swapping of complementarity-determining region in nanobodies produced by Pichia pastoris” (AMB Express, 2019) come the findings set out here.

Assay [1] concerns the target T1, Recombinant CD4 (cluster of differentiation 4) (Homo sapiens (species ), UniProt P01730).
T1 construct: CD4, recombinant, bought from R&D Systems; No catalogue number is printed; a bought soluble CD4 is probably the extracellular domain, possibly tagged (surmise); source: bought: R&D Systems
Kind of assay: SPR; BIACORE T-200; CD4 amine-coupled on CM5 (9695.5 RU); nanobodies 0.4 μM flowed over, 25 °C, HBS-EP pH 7.4, contact 180 s, 30 μL/min; binding level relative to CD4 N = 1; N = 3. Conditions: both partners purified.

The target of assay [2] is T2, Recombinant GFP (green fluorescent protein) (UniProt P42212 = GFP).
T2 construct: green fluorescent protein, recombinant, bought from ProSpec; No catalogue number is printed; source: bought: ProSpec
Kind of assay: SPR; BIACORE T-200; GFP amine-coupled on CM5 (1189.8 RU); nanobodies 0.4 μM flowed over, 25 °C, HBS-EP pH 7.4, contact 180 s, 30 μL/min; binding level relative to GFP N = 1; N = 3. Conditions: both partners purified.

B1: chimeric nanobody with CDR3 of GFP-nanobody replaced with that of CD4-nanobody (VHH)
VHH: QVQLVESGGALVQPGGSLRLSCAASGFPVNRYSMRWYRQAPGKEREWVAGMSSAGDRSSYEDSVKGRFTISRDDARNTVYLQMNSLKPEDTAVYYCAADTYNSNPARWDGYDFRGQGTQVTVSS
notes: everything before CDR3 (scaffold, CDR1, CDR2), as in the VHH of m1; CDR3, as in the VHH of m2; scaffold after CDR3, as in the VHH of m1; also called cCD4 CDR3; not shown: long peptide tag containing two FLAG-tags, C-terminal, kept
In the case of B1, the “relative binding response (CD4N to CD4 = 1)” value (“relative binding response” below) in assay [1] worked out at 0.1. In assay [2], the binding result is on record as “no binding (tested: 0.4 μM)”.

B2: chimeric nanobody with CDR2 of GFP-nanobody replaced with that of CD4-nanobody (VHH)
VHH: QVQLVESGGALVQPGGSLRLSCAASGFPVNRYSMRWYRQAPGKEREWVAAVRWSSTGIYYTQYADSVKGRFTISRDDARNTVYLQMNSLKPEDTAVYYCNVNVGFEYWGQGTQVTVSS
notes: everything before CDR2 (scaffold, CDR1), as in the VHH of m1; CDR2, as in the VHH of m2; everything after CDR2 (scaffold, CDR3), as in the VHH of m1; also called cCD4 CDR2; not shown: long peptide tag containing two FLAG-tags, C-terminal, kept
Take B2: the “relative binding response” value in assay [1] stood at 0.091.

B3: chimeric nanobody in which all CDRs of GFP-nanobody had been replaced with those of CD4-nanobody (VHH)
VHH: QVQLVESGGALVQPGGSLRLSCAASGRTFNVMRWYRQAPGKEREWVAAVRWSSTGIYYTQYADSVKGRFTISRDDARNTVYLQMNSLKPEDTAVYYCAADTYNSNPARWDGYDFRGQGTQVTVSS
notes: scaffold before CDR1, as in the VHH of m1; CDR1, as in the VHH of m2; scaffold between CDR1 and CDR2, as in the VHH of m1; CDR2, as in the VHH of m2; scaffold between CDR2 and CDR3, as in the VHH of m1; CDR3, as in the VHH of m2; scaffold after CDR3, as in the VHH of m1; not shown: long peptide tag containing two FLAG-tags, C-terminal, kept
Regarding B3, the “relative binding response” value in assay [1] came out at 0.096.
